# Results reported in PMC7954794, “Protein context shapes the specificity of SH3 domain-mediated interactions in vivo” (Nature Communications, 2021).
# B1: CYK3 (protein, UniProt Q07533 1-885, looked up)
# Cytokinesis protein 3: MATNLTSLKPPFKVKARYGWSGQTKGDLGFLEGDIMEVTRIAGSWFYGKLLRNKKCSGYFPHNFVILLEERLNSSTENGRQPSKIVESFEKSNKVVIPPVPSRYSDERPRPKKKLSSSMPNSPKKPVDSLTKARKAKSKEMVNEKNIYNTQSSRHHNNSAPNLPLASHSKPQVRNFEESMNNPLPPLPPLPDLDNMRKTDKRAPKKSYSANDLHMARSSREYNYYKDNQKFYDGFIPEKRYSLEEDSISSGLFSNSQYLNDSACSSENSFALMSDFSATSAGSFARHKYAQSFSDSLQRSQNANGCSTKINDSQEFGDSNASSRNGKMGDILRKIIIPKRNTNIYSSSVSSPKSPKAYPKLPDIQNLNLSATPDEARDWIAVKCHLNRARTLTKYDKHPRYMRALEENRDLILHPQDSIYNGLNTNEVKGNTKPGLVDVELAELNIEYIDKMTWKRCIRDGTMTLDSWAQTTFSARYSTVLEKLRGIYIFCTEMFALTDDNGTSDFSAEPQNLEKILYRKHCTPYELTWLFKKLANSLGITCEIVIGFLKTPSAINWEFKYNHCWLRILVNKEWRFIDVILGNVTNPIHEFVNNRKIKKAENSYFLMAPLEMIYTHIPPREFEQHIVPSIDQLSALYLPLVFPSFFKNELKLYKFSTALSFLEDSEIYECSLEIPNDVEVFASVVIPTDNEEASSAYRNMELALTQIKKQKAESGRRIALIKAVLPPNVNKGSLYIHSGVRGTQTSIANIHPLSMMVPLTHKGSNMKYEFVIKIPSESIQKIELYIVEPQSRYLFVGNEYSFEVIQSPSDGIVYSSDEGPNQNRKQPMAIKSPSGRVHELVKSDPHFPYGTWKGSIKIKEPGVWSALVIADSGIGWSVFAEWLCV
# System: growth of yeast strains under 51 stress conditions
# Experiment: Growth assays in 51 stress conditions (Fig. 1E-F, S2D, S5B)
# Format: cell-based, Saccharomyces cerevisiae
# Parameters: key to Growth (Fig. S2D) / growth of ABP1 SH3-swapped strains in stress condition: log2 colony size, average of median per strain (growth score)
# Details: ABP1 SH3-swapped strains
# Outline: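 Yeast WT, SH3-deleted, KO, SH3-swapped and SH3-shuffled strains pinned in 1536 format, 12 replicates each; pregrown on YPD 2 days at 30 °C, then replicated onto 51 media at 37 °C and imaged every 2 h. Growth score = mean of per-plate median log2 colony size at 74 h.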
molecule,measurement,setting,value
B1,Growth (Fig. S2D),Bathophenanthroline.0.1uM,10.8556
same,Growth (Fig. S2D),Bathophenanthroline.10uM,10.6576
same,Growth (Fig. S2D),Bathophenanthroline.1uM,10.8513
same,Growth (Fig. S2D),CaCl2.100mM,10.8897
same,Growth (Fig. S2D),CaCl2.250mM,10.7885
same,Growth (Fig. S2D),CaCl2.500mM,10.3059
same,Growth (Fig. S2D),Caffein.10mM,9.982
same,Growth (Fig. S2D),Caffein.2mM,10.9591
same,Growth (Fig. S2D),CdCl2.100uM,9.489
same,Growth (Fig. S2D),CdCl2.10uM,10.8859
same,Growth (Fig. S2D),CdCl2.50uM,9.907
same,Growth (Fig. S2D),CuSO4.1mM,10.4416
same,Growth (Fig. S2D),CuSO4.5mM,8.067
same,Growth (Fig. S2D),Cycloheximide.0.05.uM,11.0397
same,Growth (Fig. S2D),Cycloheximide.0.2.uM,10.6845
same,Growth (Fig. S2D),Cycloheximide.0.5.uM,10.0538
same,Growth (Fig. S2D),DMSO.2.,11.074
same,Growth (Fig. S2D),DMSO.6.,9.997
same,Growth (Fig. S2D),DMSO.8.,9.341
same,Growth (Fig. S2D),Ethanol.2.,10.829
same,Growth (Fig. S2D),Ethanol.6.,10.3434
same,Growth (Fig. S2D),Ethanol.8.,10.1675
same,Growth (Fig. S2D),Galactose.2.,10.8951
same,Growth (Fig. S2D),Glycerol.2.,9.685
same,Growth (Fig. S2D),Hydroxyurea.25mM,10.7817
same,Growth (Fig. S2D),Hygromycin.190uM,10.9791
same,Growth (Fig. S2D),Hygromycin.19uM,10.9621
same,Growth (Fig. S2D),Hygromycin.95uM,11.0521
same,Growth (Fig. S2D),MMS.0.004.,10.9601
same,Growth (Fig. S2D),MMS.0.02.,10.7185
same,Growth (Fig. S2D),MMS.0.04.,9.916
same,Growth (Fig. S2D),Menadione.100uM,10.6134
same,Growth (Fig. S2D),Menadione.200uM,10.436
same,Growth (Fig. S2D),Menadione.50uM,10.8202
same,Growth (Fig. S2D),NaCl.0.25M,10.7906
same,Growth (Fig. S2D),NaCl.1M,9.617
same,Growth (Fig. S2D),Nitroquinoline.10uM,10.7078
same,Growth (Fig. S2D),Nitroquinoline.50uM,10.6701
same,Growth (Fig. S2D),Nystatin.0.01uM,11.0601
same,Growth (Fig. S2D),Nystatin.0.1uM,11.0266
same,Growth (Fig. S2D),Raffinose.2.,11.0502
same,Growth (Fig. S2D),Rapamycin.10nM,9.888
same,Growth (Fig. S2D),Rapamycin.50nM,9.494
same,Growth (Fig. S2D),SC.pH3,10.4532
same,Growth (Fig. S2D),SC.pH6,11.0119
same,Growth (Fig. S2D),SDS.0.01.,11.0053
same,Growth (Fig. S2D),SDS.0.02.,10.9934
same,Growth (Fig. S2D),SDS.0.05.,10.9282
same,Growth (Fig. S2D),Sorbitol.10mM,11.048
same,Growth (Fig. S2D),Sorbitol.1mM,11.0333
same,Growth (Fig. S2D),Sorbitol.5mM,10.9546
